Measured values as given in patent publication US11939377B2, “Affinity matured CD22-specific monoclonal antibody and uses thereof” (The U.S.A., as represented by the Secretary, Department of …, priority 2018, dated 2024).

Key:
[1] = test system: CD22 expression on ALL and DLBCL cell lines (Nalm6, Kopn8, SEM, Pfeiffer, Toledo, PDX); assay: CD22 expression on leukemia/lymphoma cells by flow cytometry after drug exposure in vitro; type: cell-based, human; settings: Enzastaurin 10 μM, Staurosporine 100 μM, 24 hours
Protocol: FIGS. 3A-3D: (FIG. 3A) Four cell lines (Nalm6, Kopn8, Pfieffer and Toldeo) were co-incubated with 1 ng/ml Bryostatin 1 for 24 hours and analyzed using flow cytometry one day after Bryostatin 1 exposure. Site density was analyzed using standardized Quantibrite-PE beads. (FIG. 3B) Cell lines were co-incubated with 1 ng/ml Bryostatin 1 for 24 hours, washed, and analyzed using flow cytometry at 1 and 7 days after Bryostatin 1 exposure. Fold change was calculated based on site density: (Cell line Bryostatin 1—Cell line DMSO)/Cell line DMSO. (FIG. 3C) NSG mice were injected with 1×10^6 GPF-positive Nalm6 leukemia cells on Day 0. Bryostatin 1 was administered at 0.8 μg/kg on Day 3. Mice were sacrificed 7 and 12 days after Bryostatin 1 injection and CD22 was evaluated by flow cytometry. (FIG. 3D) CD22-low relapse PDX cell line was cultured in vitro with 1 nmol/L Bryostatin 1 for 24 hours and measured for CD22 expression using CD22 antibody.
FIGS. 10A-10E: (FIG. 10A) Three cell lines (Toldeo, Kopn8 and Nalm6) were co-incubated with Bryostatin 1 at varying concentrations for 24 hours. At 24 hours, cells were collected for protein kinase C (PKC)-βII isoform analysis by western blot. (FIG. 10B) KOPN8 or SEM cell lines were exposed to Bryostatin 1 for 16, 24, 48 or 72 hours. RNA was extracted from cells and analyzed using RNAseq. (FIG. 10C) Immunofluorescent staining of CD22 was conducted through permeabilization followed by staining of CD22. (FIG. 10D) Four cell lines were co-incubated with various combinations of Enzastaurin (10 μM), Staurosporine (100 μM), or Bryostatin 1 (1 nM) for 24 hours. CD22 expression was assessed using flow cytometry. MFI fold change=CD22 MFI^Bryostatin1/CD22 MFI^DMSO. (FIG. 10E) Cell lines were co-incubated with 1 nM Bryostatin 1 for 24 hours and measured for CD22 expression using CD22-PE antibody. MFI fold change=CD22 MFI^Bryostatin 1/CD22 MFI^DMSO.
FIG. 11: CD22^lo or parental Nalm6 cell lines were exposed to 1 ng/ml Bryostatin 1 for 24 hours. CD22 expression was assessed using flow cytometry.
For all in vitro experiments and tumor/CAR pretreatment prior to intravenous injection, Bryostatin 1 was administered to cells at a concentration of 1 ng/mL. Dimethyl sulfoxide (DMSO) vehicle control was administered to control-treated cells at an equal volume. Prior to co-culture or intravenous injection, Bryostatin 1- and DMSO-treated cells were washed 3x in sterile PBS. For all in vivo experiments, Bryostatin 1 was diluted in PBS and administered via intraperitoneal injection at a dose of 40 μg/kg (1 μg/25 g mouse). For control-treated groups, an equal volume of DMSO was diluted in PBS and administered in the same manner
FACS analysis of cell surface CAR and protein expression was performed using an LSR II Fortessa flow cytometer (BD Biosciences). CD22-CAR was detected by incubation with 22-Fc (R&D Systems), followed by incubation with human IgG-specific PE-F(ab)2 (Thermo Fisher Scientific). The following human monoclonal antibodies were used for detection of cell surface proteins: CD22-APC, CD22-PE, CD19-Pacific Blue, CD45-PerCP/Cy5.5, CD3-APC/Cy7, PD1-PE/Cy7, LAG3-APC, TIM3-Pacific Blue, CD8-APC, CD8-PE/Cy7, CD45RA-APC, CD45RO-PE/Cy7, CCR7-Pacific Blue, CD4-Pacific Blue, CD69-APC (all from BioLegend). CD22 site density was determined using QuantiBrite-PE beads (BD Biosciences) using methods previously described (Jasper et al., Cytometry B Clin Cytom 80(2):83-90, 2011). Dead cells were identified using eFluor 506 fixable viability dye (Thermo Fisher Scientific). GFP-expressing leukemia cells were identified through the FITC channel.

[2] = target: CD22 extracellular domain (ECD) (Homo sapiens, UniProt P20273); assay: BIAcore surface plasmon resonance of scFv binding to immobilized CD22 ECD-Fc
Protocol: FIGS. 13A-13F: (FIG. 13A) BIAcore analysis was used to evaluate association and dissociation curves of various scFvs. […] (FIG. 13B) CD22^V1 or CD22 CART were co-cultured with CD22^neg or CD22^lo leukemia and evaluated at 24 hours for PD1 expression through flow cytometry on a Fortessa flow machine. (FIGS. 13C-13F) Mice were injected with CD22^lo or Nalm6 leukemia on Day 0. […] Bone marrow cells were stained for flow cytometry and analyzed on Fortessa flow machine. Statistics were calculated using unpaired t-test (** p<0.0021).
Purified CD22 ECD-Fc fusion protein was diluted in 10 mM acetic acid buffer, pH 5.0, immobilized on a CMS biosensor chip for 1400 RU using an amine coupling kit. The running buffer was HBS-EP (10 mM HEPES, pH 7.4, 150 mM NaCl, 3 mM EDTA, 0.05% surfactant P20). The scFvs diluted in running buffer were allowed to flow through the cells at concentrations 0.32, 1.6, 8, 40 and 200 nM. After a 10-minute of dissociation, the chip was regenerated with 10 mM acetic acid, pH 4.0, 0.5 M NaCl. The data were fitted with 1:1 binding model and the dissociation rate constant was estimated with the BIAevaluation software.

Row | affinity relative to original scFv m971 ([2]; as measured by BIAcore) | Kd ([2]; scFv, bound from instrument limit kd) [nM] | Kd ([2]; scFv, bound from instrument limit kd 1.0×10^−5 / 5.6×10^5) [nM] | calculated dissociation rate constant kd ([2]; scFv, lower than the kd measurable by BIAcore X-100 (1.0×10^−5 l/s)) [L/s] | Molecule | upregulation of CD22 [1]
1 | – | – | – | – | Cn1cc(C2=C(c3cn(C4CCN(Cc5ccccn5)CC4)c4ccccc34)C(=O)NC2=O)c2ccccc21 [Enzastaurin] | neither the PKCβII inhibitor, Enzastaurin, nor a broad PKC inhibitor, Staurosporine, was able to upregulate CD22
2 | – | – | – | – | CN[C@@H]1C[C@H]2O[C@@](C)([C@@H]1OC)n1c3ccccc3c3c4c(c5c6ccccc6n2c5c31)C(=O)NC4 [Staurosporine] | neither the PKCβII inhibitor, Enzastaurin, nor a broad PKC inhibitor, Staurosporine, was able to upregulate CD22
3 | more than 1000 fold | < 0.018 | < 0.018 | 1.1e-06 | m971-L7: affinity matured human monoclonal antibody specific for CD22; VH SEQ ID NO: 4, VL SEQ ID NO: 5, scFv SEQ ID NO: 6 (antibody, V domains shown) VH: QVQLQQSGPGMVKPSQTLSLTCAISGDSVSSNSVAWNWIRQSPSRGLEWLGRTYYRSTWYNDYAVSMKSRITINPDTNKNQFSLQLNSVTPEDTAVYYCAREVTGDLEDAFDIWGQGTMVTVSS VL: DIQMIQSPSSLSASVGDRVTITCRASQTIWSYLNWYRQRPGEAPNLLIYAASSLQSGVPSRFSGRGSGTDFTLTISSLQAEDFATYYCQQSYSIPQTFGQGTKLEIK | –
